Test results from paper PMC7023490, “An M29 Aminopeptidase from Listeria Monocytogenes Contributes to In Vitro Bacterial Growth but not to Intracellular Infection” (Microorganisms, 2020).

Columns and labels:
Test in all cases: purified protein
Settings in all cases: 25 mM Tris-HCl pH 7.4, 37 °C, 0.05 μM enzyme, no added metal mentioned
purified protein [1] = substrate: C[C@H](N)C(=O)Nc1ccc([N+](=O)[O-])cc1
purified protein [2] = substrate: N[C@@H](Cc1ccccc1)C(=O)Nc1ccc([N+](=O)[O-])cc1
purified protein [3] = substrate: N=C(N)NCCC[C@H](N)C(=O)Nc1ccc([N+](=O)[O-])cc1
purified protein [4] = substrate: CC(C)C[C@H](N)C(=O)Nc1ccc([N+](=O)[O-])cc1
purified protein [5] = substrate: NCCCC[C@H](N)C(=O)Nc1ccc([N+](=O)[O-])cc1

B1: LmAmpII (Listeria monocytogenes EGD-e) (protein)
chain: MTVFSEKLEKYAELIVKVGVNVQPEQKVVIMAPVDAAPLVRLISKYAFEVGAEDVIMDWRDEELGALRYKNAPLRVFESAPVHRVAEKTELAKEGACFISITSEDPDLLNGVDSNKIATFQKTMGGAMSEFRELMQANVVSWTVVAAASQGWAAKVFPDLTPAEQMETLWEAIFETTRINTENPVETWKNHDQTLAAKAESLNEKQFTSLHYTAPGTDLTIGLPKNHLWVGAGSKNKKGHEFMANMPTEEVFCCADKLKVEGYVSSTKPLSYAGNIIDDFKITFEKGRIVGVEAASGEEILKDLIATDEGSHYLGEVALVPDPSPISQSGILFYNTLFDENASNHLAIGSAYAFNVKGGEEMSREELEAAGVNNSLTHVDFMIGSSEMDIDGVTESGEVVPVFRKGDWAF
B1 was tested, and the Km (purified protein [1]) was 340 µM, the Km (purified protein [2]) was 399.6 µM and the Km (purified protein [3]) was 24.94 µM. The Km (purified protein [4]) was 95.62 µM and the Km (purified protein [5]) was 165.6 µM.
